Experimental data published in PMC5651264.

Target: His-tagged FRUCTOKINASE6 (FRK6-His) (Arabidopsis thaliana)

Substance “GST-tagged TWIN SISTER OF FT (GST-TSF) (from UniProt Q9S7R5 1-175) (natural protein)” has a formazan staining of a native PAGE gel (fructokinase enzyme activity staining), 1 μg FRK6-His with 1 μg His-TSF (the His-tagged TSF, not the GST fusion), against FRK6-His alone of 2 fold.
